According to the DeepSol protein solubility set:

Assay: soluble on expression in E. coli; label from the status in PepcDB or PDB records

Soluble on expression in E. coli, soluble:
MNIDLTPYYAEPGEQPFSARRMAMPWRNHVPLSPEQIPAGWQTLKQQSVPARKRLLYLHIPFCATHCTFCGFYQNKLRDDSTATYTRYLLQELAMEADSPLHQSAPIHAVYFGGGTPTALAADELSQIIRAIRTSLPLAPDCEITVEGRAMDFDDERIDACLDAGANRFSIGIQTFDTRIRQRMARTSDKQQSIRFLERLCGRDRAAVVCDLMFGLPGQTPEIWREDLAIVSDLPLDGVDLYALNLLPTTPLAKAAENQRVALPDVVARRDFYRTGAAFLADSGWHQLSNSHWARTTRERNLYNLLIKQGADCLAMGSGAGGNINGQAYMMERSLERYYQQIDQGQKPIMMMTPASSTGPWQHQLQAGIEVGRIKLPQLTQHARELQPLLSQWHQAGLTCDDSTCLRLTNDGRFWANNLMQALQQIIPQLNAEEHAHLEHHHHHH
MSLDEVECSADHIARPILILKETRRLPWATGYAEVINAGKSTHNEDQASCEVLTVKKKAGAVTSTPNRNSSKRRSSLPNGEGLQLKENSESEGVSCHYWSLFDGHAGSGAAVVASRLLQHHITEQLQDIVDILKNSAVLPPTCLGEEPENTPANSRTLTRAASLRGGVGAPGSPSTPPTRFFTEKKIPHECLVIGALESAFKEMDLQIERERSSYNISGGCTALIVICLLGKLYVANAGDSRAIIIRNGEIIPMSSEFTPETERQRLQYLAFMQPHLLGNEFTHLEFPRRVQRKELGKKMLYRDFNMTGWAYKTIEDEDLKFPLIYGEGKKARVMATIGVTRGLGDHDLKVHDSNIYIKPFLSSAPEVRIYDLSKYDHGSDDVLILATDGLWDVLSNEEVAEAITQFLPNCDPDDPHRYTLAAQDLVMRARGVLKDRGWRISNDRLGSGDDISVYVIPLIHGNKLSEGHHHHHH
MNSLILGAARRFVGLHLRVSVNLLQNESFSSYSFSSASAADVSPKGETFKSSSFLDSLRLATKLTDKGNSDSVLDLLRSYGFTDSQISSIIRSDSRVLIDNDATSLGSKLQFLQSRGASSSELTEVVSTVPKILGKREGKSLSRYYDFIKVIIEADKSSKYEKISHSLAQGNKIRNILVLRELGVPQKRLLLLLISKSQPVCGKEKFDASLKKVVEMGFDPTTSTFVHALHMLYQMSDKTIEEKIRVYRSVGFSVDDVWAMFKKWPRSLTHSEKKVANSIETFLGLGFSRDVFMMMFKRFPPCIGYSTEAVKKKTEFLVKEMNWPVKAVASIPQVLGYSLEKRTVPRCNVIKVLMSKGLLESELPPMSSVLTSTSESFLNLYVSKHDDKQLVAELMAIFTGNRVSLTDQKARLEQ
MVYVIGMGARGREGLSLKALRRLEEAEVLIGGRRHLAHFPDHPGEKVPVQGPLEALLDLAEARLKEGKKVAFLASGDPLFYGIGKRVLERFPEAEVHPAPTAFQEAFARLKLPWDQARFFSLHGRPLGGVLLELSLSPLSVVYTDPEHTPAGIARALLEMGVDARAHVAERLGEEDERVRSFAGLKEVAEERFLDPNVLILEAKGPLPPRLGFFPDEAFEQRMPKKGLITKREVRLLALGLLGLPPDGVLWDIGAGTGSVGIEAARLAPWGEVYAVEKNPESWPHIVENARRFGAFNLHLVKGEAPEALKGLPAPHAVFVGGSGGELEEILRVSLKALRPGGRLVVAAITLENLLAAYGFLKGTGLPLEGFQVQASRVVPLARYHRLEAQNPITLLAVTKEGA
MQGFQPPAEKDAIEFAKKHRKEFEKVGEQFFKDNFGLKVKATNVVGKDDGIEVYVHCDDHGIVFNASLPLYKDAIHQKGSMRSNDNGDDMSMMVGTVLSGFEYRAQKEKYDNLYKFFKENEKKYQYTGFTKEAINKTQNVGYKNEYFYITYSSRSLKEYRKYYEPLIQKNDKEFKEGMERARKEVNYAADTDAVATLFSTKKNFTNDNTEDDVIELSDKLYNLKNKPDKSTITIQIGKPTINTKKAFYDDNRPIEYGVHSKGELEHHHHHH
MSLTLDLRESEIVEAVYESNHTWVSVEAKIDYELDPTVLFHLTEENAGDRFYYKKNDNKTSFFGYHAITRFKNDFENKQSIFREWQKYKSDIELIHPSSDKHHLKICGGFQFSMHKSGDEWREFGINHFILPEVLITMENGVSYITYTVKAEQFEIEQFKALIAHLTQNTIDSEFEIGNIKRIEDIYKDEWRDLVKDTIDVLDEHKKIVLARKRLVMFDKNINIPYILQKASQGEHNSYLFVLESQDSIFFSQTPEQLMEVNNGILSTKAVAGTIKRTHQDEVDKENIQAFLNDDKNLNEHRFVVESILNDIAPYVRDITFNETPQILTNDHLYHLYTKIKGQLENDSYIGLLDNLHPTPALGGYPKAEAIEYIEQNEFGTRGLYGAPVGYIDMNDDCEFIVAIRSMLIKKNQATLFAGCGIVKNSDADSEVEETAVKFNPMMKALGVEEYEGHHHHHH
MGSDKIHHHHHHMNAPLSHSRPMMQPSEDKSLATVFPFAGRVLDETPMLLGEGPTFDPASGTAWWFNILERELHELHLASGRKTVHALPFMGSALAKISDSKQLIASDDGLFLRDTATGVLTLHAELESDLPGNRSNDGRMHPSGALWIGTMGRKAETGAGSIYHVAKGKVTKLFADISIPNSICFSPDGTTGYFVDTKVNRLMRVPLDARTGLPTGKAEVFIDSTGIKGGMDGSVCDAEGHIWNARWGEGAVDRYDTDGNHIARYEVPGKQTTCPAFIGPDASRLLVTSAREHLDDDAITANPQHGLTFELGIEVKGRFEPLYRL
MPPFYKRLHRKKDGRELFLYGLMPLEGPPLPEDAEPFRPAPHLRYHPLRGEWVVYAAHRQGRTFLPPKEHCPLCPSREGGFPTEIPFPSFQVAVFENRFPSFVEEAPPPPEGLPVPAGRALGRCEVVVYTPAHTGSLATLTEEERLLLAWAWRDRYEALYALPGVRFVMPFENRGEAVGVTLHHPHGQIYAYPFVPPVLERESQAFRERPVLLRLFPSLGPYVVDEEEGFLAFVPPFARYPFEVWVAPVERHPGPWTFSEGEMAAFARLLGRVVARYDALFGEPFPYVMVFHAAPLGEEATFHFHVEFYPPRRTRDKLKFLAGTELGAGTFVVDALPEETAKALRAALP

Soluble on expression in E. coli, not soluble:
MGSDKIHHHHHHMPTAAAQENIRWEECPPQVDIASAQCGSIDVPMHYSDPSLGDISVGFVKVPAQGEKHGTIFGNSGGPGGDAYSFFGSQSMNWPEAMYQNYDLVAVQPRGMVGSTPVNCDNIAPGYDFLSLLTREGAFVKESCEIGTPGYTSSLTTDNTANDWERVRQALGDDKISIFGLSYGTYLGSVYATRYPQHTDKVVLDSAMAPSLAWNGIMASQEQGYKNSLNDFFTWVAENNDTYGLGTTPLAVYQNWSNKIVAETGTNPTVAPPPAQVGDVPPAFAWAGQAGADMMTATNPTSVQLQGLATQLLNPGSNQSLSPLLNVTRAYIPQPSTWPMLAGAISGQTPIPDVTDTGDDPYVIESINASVNMQRMVMCNENTVAPDPVAMARMAWTSMVTGDVFDIYSVKFSSGQACSGITPTSGRQPTDGSQLAVQPLLLQGTSDPQTPYWTHNELADAMNAHVVTVNGPGHGQSIGGTNQAINDIVVDYLRTGHTDATWVEGNTPTPITAG
GVKCEPFEHLVIDTPQDFSGAIIERLGKRKAEMKAMNPMSDGYTRLEFEIPARGLIGYRSEFLTDTKGEGVMNHSFLEFRPFSGSVESRKNGALISMENGEATAFSLFNIQERGTLFINPQTKVYVGMV
MGSDKIHHHHHHMKLVVATNFDDSLLEGLKRYPDVKYIFGSFKRTITGHGRAGFIVPHIKEEQFETHISLAHSYGIKFLYTMNTNTLLGKEYDTEFIGKVMKEVDKLVNFGVDGFIVALPFLIRLIRTEYPDLEVSASSFSRIRNVREVEEYTNLGVNTIIMHEDANRDFKLLKEVAALSRANRFEIELILNNSCLYGCPFRLTHDNISSVTSMVNGVNDVWFEYPVLLCATDVLNDPANLIRSRWIRPEDIKYYEEIGINRFKIAGRNKKTDWILRVVKAYAERKYEGDLLDLVSYPQGRAATKAVQMVNGPSSYFILTSVRIDNTKFPKGWIKFFFTNDCDTRSCKECKYCDIVAERVMTVNGEPFKSSEWSIRQPYPINIIPKFKERK
YVTNDLANSMKDRGTMLADSLRVDFAIINDPSKIPVSGTGPYTYTFYVKNIGKDSIAFSSNSIQVFIDGNIIPPANLTFTDVNGNSISSLDPGEVGAIQVTLGNALDPGYHRIQVVLENGKERVLIFKI
EGSARFMPELTARAGFAFIPSIAIIKNKVFEPDDPQELEAYQSVLGYTPGIRGNLKVSSFSGHMLADYHPFKNAFRVTAGLYFNRPQINAKVQLINQNTGQSIMNDQSTLNPNNMPVITIKDKDNPADKVSIQPSSTAEVEASVHLGRTVQPYIGIGYGFAVPVSRVSFFADLGMLFSGKAQISSPNVIAGDPNLLIDFSEDAQEAVYSTQILPVLNIGVSIRLF
QRKVSVAGAITTMDPAQLEVPATNIVNTLAGRVAGVIGVQSSGEPGKNISEFWVRGIGTFGANSGALVLIDGLEGSLSQIDAADVESFSVLKDAAATAVYGSRGANGVVLVTTKRGLES
MALLVAKAYKIIDRIKDAESRPDRLTNKDAGDVYRLFMGFPAAGVAASWHALTSDQRVGEVSTTGLALLRELFAGPRSPGANMAVAALAGDVPEDRVRQVCRAYVNRLSA
KPFNDEKTAKIAEEVQQFYESNATISLNEYLENVGELGYELYLTDGAEKSTYYGGAFRKKDLPDKTIKQVLDGETYHGIDSFDTGIFITGFFDNDVRNTIGVPVQADGKQLALFIRQDPEKQFGE
MNQLINITLNENQEPVVSGRDLHNVLNIKTQYTKWLERMSEYGFEENVDYIAISQKRLTAQGNRTEYIDHVLKLDMAKEIAMLQRNEKSKQVRKYFIQVEKDFNSPEKIMARALLMADKKITNLTMENNQLQLDLKEAQKQARYLDLIIESKGALRVTQIAADYGMSVNKFNKTLLEFGVQHKVNGQWILYKRHMGKGYTDSHTFDYQDKNGHTRANVTTTWTQKGRLFLYELLKDNNILPLIEQEDIV
MAHHHHHHMHTDDKQAQRYPRTSDAARVHSTLRVGQNTSDKVPYGRLSSQSGPGTPRGDLFPPSNGLSKVEGEETPAAGAWQYPSEPMATPNTRSVQLNGALPVKNEEGETKCSGDAIREEGTKDGGDGVIIGIDAAVEAGVLVANEESGKEDENRESNVNSTPCASGTNETIATATPTLSNATAASVVLTPAVPASTGLRASRRLLDFTGSTNVSNGPRAASRLFDVKPVGGGAQAASQGVGFLRLSKTVPSAASQAVSARMRTSRKNGPTLSATSRGHSSTAHENLPCRNDYTSLRLKEQRRRELYAWNEELRRQDKSDMSADAV
MGSDKIHHHHHHMGHKVTGSDANVYPPMSTQLEQQGIELIQGFDPAQLGKEGDNQPDLVVIGNAMSRGNPCVEAVLNRGIKYTSGPQFLSEHILQDRWVLAVAGTHGKTSTSSMLAWVLEYCGYEPGFLIGGVPQNFGVSARLGNSVFFVVEADEYDSAFFDKRSKFVHYHPRTLVINNLEFDHADIFADLAAIQRQFNHVIRTVPGEGKVIWPSDVEAVQQVIDMGCWSEQEIYSKATSLTTGLAEHSVNVSANQGEPNAWQPRTIADDGHEFEVLFKGESQGIVNWSLIGQHNIENAIMAIAAARHVGVAPSHAIEALAQFSPPKRRLELLATVNGVSVYDDFAHHPTAIATTLQGLRAKVASSDNANGNIIVVLEPRSNTMKSGVHKDTLANSMVLADVGYLYQADNIDWDIKASMANAPIPVTVFNNIEDIINAVAATANQGDTVVIMSNGGFNGIHQKMIKALA
MSLNKFVDREGSVVAVYAAKSKAGCSAPDVEKVNQDAFCLVEKYGDSPNLSWFSVMDGHGLNGHLVSDIVRQILHKNVQECPEFNRDIKQALQKGFFRTNCELFQPGIDITMSGTTCVACVFHGSTLYSANVGDSRAIMGRSNGKGGWTSLSLTHDHKPDRPDEEKRILAADGRVGALKGPNGEALGPARVWRKDCDAPGLAMSRSLGDSLAASVGVIDDFIVIASDGLWEFMTNEEVTQIVSRFLDSRDPLGACDGLIEEANRRWRLEDDVIDDTTVVVIFLDVGRKEGHHHHHH
